This is an account of results in patent US20240309051A1, “[…] T (TFH) CELLS […] TO SARS-COV-2 VIRUS” (priority 2021, published 2024).

In the assay the target is T1, SARS-COV-2 S protein, S867-881 peptide with residue 3 (Q) of SEQ ID NO: 13 replaced with alanine peptide on … (human).
T1 peptide: DEMIAAYTSALLAGT
As to the kind of experiment: activation reporter or marker.

B1: Clone 1 (TCR-017) (TCR)
alpha TRAV12-1 TRAJ12 CDR3: CVVNRGSSYKLIF
beta TRBV11-2 TRBJ2-7 CDR3: CASSQTYEQYF
In the case of B1, the binding result is listed as “no recognition”.
